What was measured:
[1] = target: T1, human IL27 receptor (IL27RA/gp130 heterodimer) on human cells (human, UniProt Q6UWB1 33-636; P40189 23-918); experiment: cell-based or functional assay
[2] = target: T2, cynomolgus IL27 receptor (IL27RA/gp130 heterodimer) on cynomolgus T cells (cynomolgus monkey); experiment: cell-based or functional assay
T2 chain 1: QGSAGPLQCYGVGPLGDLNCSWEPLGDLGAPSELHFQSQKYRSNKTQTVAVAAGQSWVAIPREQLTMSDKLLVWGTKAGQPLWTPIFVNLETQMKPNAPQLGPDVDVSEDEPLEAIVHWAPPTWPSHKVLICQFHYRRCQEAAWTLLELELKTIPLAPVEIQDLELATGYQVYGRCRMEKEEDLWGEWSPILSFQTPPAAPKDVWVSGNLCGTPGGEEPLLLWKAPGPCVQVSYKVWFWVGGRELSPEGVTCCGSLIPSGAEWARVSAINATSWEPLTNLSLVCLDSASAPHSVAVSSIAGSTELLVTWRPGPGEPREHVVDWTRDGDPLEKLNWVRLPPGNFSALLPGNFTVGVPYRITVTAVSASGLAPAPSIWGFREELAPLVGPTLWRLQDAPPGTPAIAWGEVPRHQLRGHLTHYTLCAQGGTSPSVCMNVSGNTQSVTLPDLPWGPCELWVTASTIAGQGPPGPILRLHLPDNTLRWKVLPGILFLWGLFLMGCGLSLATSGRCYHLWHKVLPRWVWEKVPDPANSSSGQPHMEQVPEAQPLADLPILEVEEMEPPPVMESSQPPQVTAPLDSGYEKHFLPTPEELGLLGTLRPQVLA
T2 chain 2: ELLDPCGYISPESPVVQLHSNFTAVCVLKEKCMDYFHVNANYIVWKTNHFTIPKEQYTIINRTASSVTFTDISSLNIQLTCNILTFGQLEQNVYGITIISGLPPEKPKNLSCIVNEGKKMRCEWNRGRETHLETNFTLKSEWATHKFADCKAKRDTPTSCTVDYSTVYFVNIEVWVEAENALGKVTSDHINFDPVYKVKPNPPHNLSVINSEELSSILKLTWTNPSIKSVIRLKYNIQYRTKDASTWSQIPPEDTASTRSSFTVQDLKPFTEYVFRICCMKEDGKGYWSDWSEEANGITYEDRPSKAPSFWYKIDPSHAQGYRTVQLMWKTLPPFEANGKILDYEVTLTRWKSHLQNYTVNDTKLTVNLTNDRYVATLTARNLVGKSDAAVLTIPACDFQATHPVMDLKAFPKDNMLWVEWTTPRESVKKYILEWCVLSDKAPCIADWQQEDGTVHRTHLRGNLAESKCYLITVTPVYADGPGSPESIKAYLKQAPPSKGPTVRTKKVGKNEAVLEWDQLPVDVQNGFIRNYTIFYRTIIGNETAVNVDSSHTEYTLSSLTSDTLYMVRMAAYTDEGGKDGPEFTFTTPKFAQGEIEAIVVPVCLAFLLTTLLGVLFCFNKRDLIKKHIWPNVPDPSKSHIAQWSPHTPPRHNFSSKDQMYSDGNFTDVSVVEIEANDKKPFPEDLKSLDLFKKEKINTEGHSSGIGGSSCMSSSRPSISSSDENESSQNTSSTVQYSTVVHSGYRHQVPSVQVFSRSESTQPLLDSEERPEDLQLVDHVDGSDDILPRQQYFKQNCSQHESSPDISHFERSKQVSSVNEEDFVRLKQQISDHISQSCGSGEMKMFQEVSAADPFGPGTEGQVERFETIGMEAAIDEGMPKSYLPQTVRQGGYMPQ

[3] = target: T1, human IL27 receptor (IL27RA/gp130 …); experiment: cell-based or functional assay; remark: listed apart in the source
Cynomolgus monkey gp130 = target: T3, Cynomolgus monkey gp130 (cynomolgus monkey, UniProt P40189 23-619 (human entry), limits assumed); experiment: SPR Biacore 8K+, 37 C; mAb-4894 captured by anti-Fab, antigen as analyte; 1:1 Langmuir fit
T3 construct: Soluble SPR analyte; also called Cyno GP130; cyGP130
T3 chain: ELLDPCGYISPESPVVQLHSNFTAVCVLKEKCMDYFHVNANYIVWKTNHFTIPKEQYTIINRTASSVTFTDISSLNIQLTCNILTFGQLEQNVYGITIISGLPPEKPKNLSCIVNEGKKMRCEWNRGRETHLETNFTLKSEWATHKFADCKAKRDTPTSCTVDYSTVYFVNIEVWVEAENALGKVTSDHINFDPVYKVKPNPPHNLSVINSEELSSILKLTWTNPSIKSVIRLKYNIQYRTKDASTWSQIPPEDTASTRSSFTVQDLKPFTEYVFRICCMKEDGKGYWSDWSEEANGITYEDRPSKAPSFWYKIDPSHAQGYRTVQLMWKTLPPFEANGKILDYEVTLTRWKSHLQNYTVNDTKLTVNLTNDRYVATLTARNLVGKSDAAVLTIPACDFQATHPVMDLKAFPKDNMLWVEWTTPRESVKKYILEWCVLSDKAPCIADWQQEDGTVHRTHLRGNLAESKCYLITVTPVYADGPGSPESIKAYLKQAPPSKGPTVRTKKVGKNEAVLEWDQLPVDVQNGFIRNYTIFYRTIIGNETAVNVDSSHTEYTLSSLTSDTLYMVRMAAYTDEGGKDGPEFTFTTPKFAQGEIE
Protocol: The crossreactivity of mAb-4894 to human and cynomolgus monkey antigens, gp130 (human—SEQ ID NO: 45, cynomolgus—SEQ ID No: 46) and IL27RA (human—SEQ ID NO: 41, cynomolgus—SEQ ID No: 42), was measured by surface plasmon resonance by anti-FAB capture of mAb-4894 (containing arms of anti-IL27RA-4880 EE and anti-gp130-4875 RR) on a biacore chip. Human or cynomolgus monkey IL27RA or gp130 was flowed over the chip and on and off rates were determined, and the affinity constants calculated.
Flow cell 1 for each channel was used as a reference flow cell. After antibody capture, three-fold dilution series of cytokines with concentrations ranging from 405 nM to 15 nM for huGP130 and cyGP130 and 45 nM to 1.67 nM for huIL27R and cyIL27R or HBS-EP+ buffer were injected over the sensor surface for 60 seconds at 50 μl/minute. The dissociation was monitored for 600 seconds and the surface was regenerated with 2 injections of 10 mM Glycine pH 1.7 at 30 μl/minute. The data was double referenced (Myszka, D., J. Mol. Recognit 1999; 279-284). Binding affinities and rate constants were determined for human and cyno GP130 and IL27R by fitting the resulting sensorgram data to a 1:1 Langmuir model in BIAcore Insight Evaluation software version 3.0.12.15655 (Cytiva).

B1: mAb-4894 anti-IL27RA/gp130 bispecific antibody (bispecific antibody, human IgG1)
heavy 1: EVQLVESGGGLVQPGGSLRLSCAASGFTFEYFGLQWVRQAPGKGLEWIGYTSSGGNYEYYEETLKGRFTISRDNAKNSLYLQMNSLRAEDTAVYYCARTKTGDYWGQGTLVTVSSASTKGPSVFPLAPSSKSTSGGTAALGCLVKDYFPEPVTVSWNSGALTSGVHTFPAVLQSSGLYSLSSVVTVPSSSLGTQTYICNVNHKPSNTKVDKKVEPKSCEKTHTCPPCPAPEAAGAPSVFLFPPKPKDTLMISRTPEVTCVVVDVSHEDPEVKFNWYVDGVEVHNAKTKPREEQYNSTYRVVSVLTVLHQDWLNGKEYKCKVSNKALPAPIEKTISKAKGQPREPQVYTLPPSREEMTKNQVSLTCEVKGFYPSDIAVEWESNGQPENNYKTTPPVLDSDGSFFLYSKLTVDKSRWQQGNVFSCSVMHEALHNHYTQKSLSLSPGK
light 1: DIQMTQSPSSLSASVGDRVTITCRASQDIGNSLTWYQQKPGKAPKRVIFGATGLAAGVPSRFSGSGSGTDFTLTISSLQPEDFATYYCLQSKQYPYTFGQGTKLEIKRTVAAPSVFIFPPSDEQLKSGTASVVCLLNNFYPREAKVQWKVDNALQSGNSQESVTEQDSKDSTYSLSSTLTLSKADYEKHKVYACEVTHQGLSSPVTKSFNRGEC
heavy 2: QVQLVQSGAEVKKPGSSVKVSCKVSGGSISSYYWSWVRQAPGQGLEWIGRIYITGNTNYNPSLKDRVTMTVDTSTSTHYMELSSLRSEDTAVYYCAREGPKLGIFDYWGQGTLVTVSSASTKGPSVFPLAPSSKSTSGGTAALGCLVKDYFPEPVTVSWNSGALTSGVHTFPAVLQSSGLYSLSSVVTVPSSSLGTQTYICNVNHKPSNTKVDKKVEPKSCRKTHTCPPCPAPEAAGAPSVFLFPPKPKDTLMISRTPEVTCVVVDVSHEDPEVKFNWYVDGVEVHNAKTKPREEQYNSTYRVVSVLTVLHQDWLNGKEYKCKVSNKALPAPIEKTISKAKGQPREPQVYTLPPSREEMTKNQVSLTCLVKGFYPSDIAVEWESNGQPENNYKTTPPVLDSDGSFFLYSRLTVDKSRWQQGNVFSCSVMHEALHNHYTQKSLSLSPGK
light 2: DIQMTQSPSSLSASVGDRVTITCRASQSVSSSYLAWYQQKPGKAPKLLIYGTESRATGVPSRFSGSGSGTDFTLTISSLQPEDFATYYCQQYGGYPTFGGGTKVEIKRTVAAPSVFIFPPSDEQLKSGTASVVCLLNNFYPREAKVQWKVDNALQSGNSQESVTEQDSKDSTYSLSSTLTLSKADYEKHKVYACEVTHQGLSSPVTKSFNRGEC
notes: Human IgG1 EE/RR heterodimer with L234A, L235A, G237A (EU); also called GBT-IL27R-4894; GBT-IL-27R-4894
With B1 the “Monocyte IDO1 EC50 (human PBMC, CD14+ monocytes, flow cytometry)” value [1] was 5 pM, the “Monocyte PD-L1 EC50 (human whole blood, flow cytometry)” value [1] was 2 pM and the “Primary Colonocytes IDO1 activity EC50 (kynurenine by LC-MS)” value [1] was 5400 pM. The “T Cell pSTAT1 EC50 (human whole blood, CD3+ T cells, flow cytometry)” value [1] was 0.4 nM, the “T Cell pSTAT3 EC50 (human whole blood, CD3+ T cells, flow cytometry)” value [1] was 0.2 nM and the “T Cell pSTAT1 EC50 (cynomolgus whole blood, CD3+ T cells, flow cytometry)” value [2] was 1.74 nM. For the same binder, the “T Cell pSTAT3 EC50 (cynomolgus whole blood, CD3+ T cells, flow cytometry)” value [2] was 1.17 nM, the “IDO1 in CD14+ monocytes EC50” value [3] was 8 pM and the “PD-L1 in CD14+ monocytes EC50 (human whole blood)” value [3] was 2 pM. The “pSTAT1 in CD3+ T cells EC50 (human whole blood)” value [3] was 83 pM, the Kd (Cynomolgus monkey gp130) was 188000 pM and the koff (Cynomolgus monkey gp130) was 0.0403 s⁻¹. The kon (Cynomolgus monkey gp130) was 215000 M⁻¹ s⁻¹.
